Molecular target: mMBP-fused VERL-Fb (fragment of vitelline envelope receptor for lysin)
Assay: crystal structure; crystals of the mMBP-VERL-Fb fusion, space group P2(1), 2.9 Å, molecular replacement with MBP; refinement ongoing

mMBP-fused VERL-Fb (fragment of vitelline envelope receptor for lysin), sequence (Q8WR62 25-3722): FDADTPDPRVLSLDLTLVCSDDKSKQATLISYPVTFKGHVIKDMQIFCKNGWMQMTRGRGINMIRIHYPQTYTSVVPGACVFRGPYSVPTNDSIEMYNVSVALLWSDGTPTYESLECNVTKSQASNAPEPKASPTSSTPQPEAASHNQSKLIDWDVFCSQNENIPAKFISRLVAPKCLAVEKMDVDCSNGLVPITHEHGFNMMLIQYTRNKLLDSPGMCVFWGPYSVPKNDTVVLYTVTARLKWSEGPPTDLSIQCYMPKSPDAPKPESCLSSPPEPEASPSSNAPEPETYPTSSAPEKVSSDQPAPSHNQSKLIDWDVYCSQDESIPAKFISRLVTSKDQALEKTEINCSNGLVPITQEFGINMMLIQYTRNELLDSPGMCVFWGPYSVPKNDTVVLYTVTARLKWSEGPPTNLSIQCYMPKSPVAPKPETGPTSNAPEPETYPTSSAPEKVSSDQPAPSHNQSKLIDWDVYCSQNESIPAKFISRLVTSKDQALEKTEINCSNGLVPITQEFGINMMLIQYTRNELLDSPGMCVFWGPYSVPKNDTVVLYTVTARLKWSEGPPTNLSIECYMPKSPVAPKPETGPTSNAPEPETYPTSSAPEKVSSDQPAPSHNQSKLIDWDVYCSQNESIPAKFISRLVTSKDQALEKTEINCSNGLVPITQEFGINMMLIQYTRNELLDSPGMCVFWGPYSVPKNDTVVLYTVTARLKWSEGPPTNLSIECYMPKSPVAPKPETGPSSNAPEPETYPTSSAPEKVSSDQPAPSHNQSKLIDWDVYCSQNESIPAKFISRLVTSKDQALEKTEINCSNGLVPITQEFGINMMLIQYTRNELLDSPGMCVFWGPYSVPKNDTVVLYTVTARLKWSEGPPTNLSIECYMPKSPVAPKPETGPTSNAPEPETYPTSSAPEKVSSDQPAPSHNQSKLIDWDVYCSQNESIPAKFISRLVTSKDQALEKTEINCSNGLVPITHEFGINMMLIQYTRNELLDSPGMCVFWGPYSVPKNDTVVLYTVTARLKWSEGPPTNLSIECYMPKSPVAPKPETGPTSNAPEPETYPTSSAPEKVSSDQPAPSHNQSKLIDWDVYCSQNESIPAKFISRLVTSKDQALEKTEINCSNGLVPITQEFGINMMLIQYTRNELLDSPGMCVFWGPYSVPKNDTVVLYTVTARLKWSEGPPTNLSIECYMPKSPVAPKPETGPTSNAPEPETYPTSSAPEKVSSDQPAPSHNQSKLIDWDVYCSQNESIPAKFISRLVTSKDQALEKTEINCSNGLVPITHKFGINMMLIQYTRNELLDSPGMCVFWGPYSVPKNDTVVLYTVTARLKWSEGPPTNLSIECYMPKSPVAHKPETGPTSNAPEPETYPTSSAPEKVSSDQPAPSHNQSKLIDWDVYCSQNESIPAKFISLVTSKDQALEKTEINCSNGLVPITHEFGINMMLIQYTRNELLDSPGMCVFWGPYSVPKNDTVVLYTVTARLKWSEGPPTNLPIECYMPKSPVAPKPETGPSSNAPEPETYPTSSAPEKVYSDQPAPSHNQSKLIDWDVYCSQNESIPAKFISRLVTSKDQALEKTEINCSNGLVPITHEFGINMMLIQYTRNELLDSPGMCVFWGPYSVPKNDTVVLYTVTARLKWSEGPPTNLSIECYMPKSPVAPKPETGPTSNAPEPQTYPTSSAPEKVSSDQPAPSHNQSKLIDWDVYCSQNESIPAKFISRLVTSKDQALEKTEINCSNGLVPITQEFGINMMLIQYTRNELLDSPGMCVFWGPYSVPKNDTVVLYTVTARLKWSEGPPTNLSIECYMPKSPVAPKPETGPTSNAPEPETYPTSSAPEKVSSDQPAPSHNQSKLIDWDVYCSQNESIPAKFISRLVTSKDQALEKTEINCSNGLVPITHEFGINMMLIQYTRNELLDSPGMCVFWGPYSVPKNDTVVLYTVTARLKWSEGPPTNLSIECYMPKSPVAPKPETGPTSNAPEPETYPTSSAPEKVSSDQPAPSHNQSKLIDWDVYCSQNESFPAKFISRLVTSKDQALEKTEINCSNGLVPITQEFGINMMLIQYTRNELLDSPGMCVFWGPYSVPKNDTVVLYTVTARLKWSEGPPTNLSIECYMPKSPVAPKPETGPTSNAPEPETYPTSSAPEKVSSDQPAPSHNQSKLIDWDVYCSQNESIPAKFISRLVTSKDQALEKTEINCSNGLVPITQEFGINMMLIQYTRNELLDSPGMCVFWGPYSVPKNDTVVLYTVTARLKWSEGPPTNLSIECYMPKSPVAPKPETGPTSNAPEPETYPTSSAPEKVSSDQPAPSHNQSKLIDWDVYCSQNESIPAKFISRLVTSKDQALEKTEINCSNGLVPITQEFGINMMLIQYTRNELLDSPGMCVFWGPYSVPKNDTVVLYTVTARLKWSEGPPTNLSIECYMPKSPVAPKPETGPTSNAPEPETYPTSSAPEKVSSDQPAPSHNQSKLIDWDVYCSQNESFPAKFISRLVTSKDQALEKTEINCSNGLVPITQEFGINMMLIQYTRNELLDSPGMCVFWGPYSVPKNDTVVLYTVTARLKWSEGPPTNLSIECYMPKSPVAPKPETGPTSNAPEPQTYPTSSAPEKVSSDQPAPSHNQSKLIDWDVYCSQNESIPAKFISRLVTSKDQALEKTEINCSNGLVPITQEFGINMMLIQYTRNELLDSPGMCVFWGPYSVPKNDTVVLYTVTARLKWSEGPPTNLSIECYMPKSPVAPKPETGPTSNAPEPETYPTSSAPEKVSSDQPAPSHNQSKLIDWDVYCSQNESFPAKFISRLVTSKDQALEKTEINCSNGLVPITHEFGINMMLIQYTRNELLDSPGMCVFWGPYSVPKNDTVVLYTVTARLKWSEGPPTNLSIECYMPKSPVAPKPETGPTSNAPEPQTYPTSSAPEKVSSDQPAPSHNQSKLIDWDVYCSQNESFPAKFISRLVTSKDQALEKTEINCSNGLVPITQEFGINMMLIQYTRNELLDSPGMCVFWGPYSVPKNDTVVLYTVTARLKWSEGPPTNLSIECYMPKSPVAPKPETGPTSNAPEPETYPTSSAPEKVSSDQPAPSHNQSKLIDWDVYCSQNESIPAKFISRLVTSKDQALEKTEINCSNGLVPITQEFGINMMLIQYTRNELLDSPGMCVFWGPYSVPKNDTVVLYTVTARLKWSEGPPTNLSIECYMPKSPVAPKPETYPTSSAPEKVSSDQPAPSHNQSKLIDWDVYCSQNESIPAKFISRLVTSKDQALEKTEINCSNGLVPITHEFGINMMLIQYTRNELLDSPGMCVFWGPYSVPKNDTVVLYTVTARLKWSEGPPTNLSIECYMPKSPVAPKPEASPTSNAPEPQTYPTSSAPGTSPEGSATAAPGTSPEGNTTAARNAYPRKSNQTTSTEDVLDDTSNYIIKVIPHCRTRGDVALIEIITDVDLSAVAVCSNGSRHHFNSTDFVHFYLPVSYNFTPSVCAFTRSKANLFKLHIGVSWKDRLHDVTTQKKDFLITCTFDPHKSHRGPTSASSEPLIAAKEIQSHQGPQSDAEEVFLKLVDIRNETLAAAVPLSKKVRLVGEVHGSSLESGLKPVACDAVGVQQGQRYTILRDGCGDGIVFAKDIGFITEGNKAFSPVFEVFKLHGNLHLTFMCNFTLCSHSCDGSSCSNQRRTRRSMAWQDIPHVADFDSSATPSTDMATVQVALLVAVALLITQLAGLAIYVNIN

stoichiometry N: 2
Substance: mMBP-fused VERL-Fb (fragment of vitelline envelope receptor for lysin) (domain or fragment)
